Measured values published in patent publication US5843749, “Ehk and Ror tyrosine kinases” (Regeneron Pharmaceuticals, Inc., dated 1998).

B1: brain derived neurotrophic factor (human BDNF, produced in CHO cells) (ligand)
chain: HSDPARRGELSVCDSISEWVTAADKKTAVDMSGGTVTVLEKVPVSKGQLKQYFYETKCNPMGYTKEGCRGIDKRHWNSQCRTTQSYVRALTMDSKKRIGWRFIRIDTSCVCTLTIKRGR
modifications: radioiodinated (125I, lactoperoxidase method) where used as the labeled ligand
B2: Murine 2.5S NGF (ligand)
chain: SSTHPVFHMGEFSVCDSVSVWVGDKTTATDIKGKEVTVLAEVNINNSVFRQYFFETKCRASNPVESGCRGIDSKHWNSYCTTTHTFVKALTTDEKQAAWRFIRIDTACVCVLSRKATR
modifications: radioiodinated (125I, lactoperoxidase method) where used as the labeled ligand
B3: neurotrophin-3 (human NT-3, produced in CHO cells) (ligand)
chain: YAEHKSHRGEYSVCDSESLWVTDKSSAIDIRGHQVTVLGEIKTGNSPVKQYFYETRCKEARPVKNGCRGIDDKHWNSQCKTSQTYVRALTSENNKLVGWRWIRIDTSCVCALSRKIGRT
modifications: radioiodinated (125I, lactoperoxidase method) where used as the labeled ligand

Key:
[1] = biological target: rat trkB (full-length, pCMX-trkB or pLTR-trkB) (rat) (UniProt Q63604)
[2] = biological target: human low affinity nerve growth factor receptor (LNGFR) (human, UniProt P08138); assay: competition of cross-linking, competitor 125I-NT-3, pCMX-LNGFR COS cells
[3] = biological target: rat trkB (full-length, pCMX-trkB or pLTR-trkB) (rat, UniProt Q63604); assay: DSS cross-linking of 125I-NGF to COS cells transfected with pCMX-trkB
Protocol: COS-M5 cells were transiently transfected with either the pCMX-LNGFR, pCMX-trkB, or control vector (pCMX) by the DEAE-dextran transfection protocol. Briefly, COS-M5 cells were plated at a density of 1.5 ×10^6 cells per 100 mm plate 24 hours prior to transfection. For transfection, the cells were cultured in serum-free DMEM containing 400 μg/ml of DEAE-dextran, 1 μM chloroquine, 2 mM glutamine, 20 μg/ml insulin, 5 μg/ml transferrin, 33 nM sodium selenite, and 5 μg of the appropriate DNA for 3 hours and 15 minutes at 37° C. in an atmosphere of 5% CO2. The transfection media was aspirated and replaced with phosphate-buffered saline with 10% DMSO for 2 min. Following this DMSO "shock", the COS-M5 cells were placed into DMEM with 10% FBS, 1% each of penicillin and streptomycin, and 2 mM glutamine for 48 hours.
Cells were harvested in phosphate-buffered saline containing 1 mM EDTA, 1 mg/ml glucose and 25 mM HEPES (PBS-versene) and resuspended at an appropriate density (generally 1 ×10^6 cells per ml) in ice-cold binding buffer A (PBS containing 1 mg/ml each of BSA and glucose). pCMX-trkB or pCMX vector transfected COS-M5 cells (4 ×10^5 cells) were incubated on ice with ^125I-labeled neurotrophins (final concentration estimated to be between 0.1 and 0.25 nM) for 90 minutes in the absence or presence of unlabeled NGF, BDNF or NT-3 (see FIGS. 1 and 3). […]

| Binder | dose-response survival assay of trkB-expressing NIH3T3 cells, concentration at which activity is obvious [1] [pM] | binding result [2] | binding result [3] | dose-response survival assay of trkB-expressing NIH3T3 cells, concentration at which effects are discernible [1] [pM] | dose-response survival assay of trkB-expressing NIH3T3 cells, effectiveness against BDNF [1] [fold] |
| --- | --- | --- | --- | --- | --- |
| B1 | 0.5 to 5 | binds |  |  |  |
| B2 |  |  | no binding |  |  |
| B3 |  | binds |  | 50 | < 10 |
